# Results reported in paper PMC8242512.
# Biological target: soluble trimeric SARS-CoV-2 S glycoprotein, 2P-stabilized, lacking the furin cleavage site (SARS-CoV-2) (UniProt P0DTC2)
# Experiment: SPR; S protein captured on a Ni2+-loaded NTA chip; ACE2 as analyte, serial dilutions 200 nM to 3.125 nM in triplicate, 50 ul/min, HBS P+ buffer, association 300 s, dissociation 600 s; 1:1 binding model (Biacore Evaluation Software)
# Sequence of truncated soluble angiotensin-converting enzyme 2 (hACE2) (Q9BYF1 18-626): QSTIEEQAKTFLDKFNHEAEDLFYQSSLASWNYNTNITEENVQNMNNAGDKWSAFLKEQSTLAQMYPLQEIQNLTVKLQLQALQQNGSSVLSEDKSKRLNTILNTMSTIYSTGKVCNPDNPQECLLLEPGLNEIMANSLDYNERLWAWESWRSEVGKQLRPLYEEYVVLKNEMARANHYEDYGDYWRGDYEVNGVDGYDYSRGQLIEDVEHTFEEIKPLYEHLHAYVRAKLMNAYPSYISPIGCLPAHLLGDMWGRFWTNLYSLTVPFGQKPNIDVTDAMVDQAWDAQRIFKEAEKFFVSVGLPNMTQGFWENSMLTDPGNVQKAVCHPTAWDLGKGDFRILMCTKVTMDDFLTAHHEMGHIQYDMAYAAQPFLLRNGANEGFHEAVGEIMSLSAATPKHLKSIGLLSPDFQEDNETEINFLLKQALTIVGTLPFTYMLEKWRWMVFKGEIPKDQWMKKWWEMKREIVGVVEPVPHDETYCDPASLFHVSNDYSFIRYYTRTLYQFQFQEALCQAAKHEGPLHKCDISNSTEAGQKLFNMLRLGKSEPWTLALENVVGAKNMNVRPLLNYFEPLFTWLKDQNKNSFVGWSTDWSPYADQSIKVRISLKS
substance,measurement,value
truncated soluble angiotensin-converting enzyme 2 (hACE2) (from UniProt Q9BYF1 18-626) (receptor),Kd,84 nM
